From PMC5624674

B1: unnamed (parent)
chain 1: MKTLPVLPGQAASSRPSPVEIWQILLSRLLDQHYGLTLNDTPFADERVIEQHIEAGISLCDAVNFLVEKYALVRTDQPGFSACTRSQLINSIDILRARRATGLMTRDNYRTVNNITLGKYPEAK
chain 2: MFEPMELTNDAVIKVIGVGGGGGNAVEHMVRERIEGVEFFAVNTDAQALRKTAVGQTIQIGSGITKGLGAGANPEVGRNAADEDRDALRAALEGADMVFIAAGMGGGTGTGAAPVVAEVAKDLGILTVAVVTKPFNFEGKKRMAFAEQGITELSKHVDSLITIPNDKLLKVLGRGISLLDAFGAANDVLKGAVQGIAELITRPGLMNVDFADVRTVMSEMGYAMMGSGVASGEDRAEEAAEMAISSPLLEDIDLSGARGVLVNITAGFDLRLDEFETVGNTIRAFASDNATVVIGTSLDPDMNDELRVTVVATGIGMDKRPEITLVTNKQVQQPVMDRYQQHGMAPLTQEQKPVAKVVNDNAPQTAKEPDYLDIPAFLRKQAD
B2: α-FtsZ fusion protein (wild-type E. coli FtsZ) [E. coli] / α-FtsZ fusion protein (wild-type E. coli FtsZ) [E. coli] (parent)
chain 1: B1 chain 2
chain 2: B1 chain 2
B3: unnamed (parent)
chain 1: B1 chain 1
chain 2: MLKKFRGMFSNDLSIDLGTANTLIYVKGQGIVLNEPSVVAIRQDRAGSPKSVAAVGHDAKQMLGRTPGNIAAIRPMKDGVIADFFVTEKMLQHFIKQVHSNSFMRPSPRVLVCVPVGATQVERRAIRESAQGAGAREVFLIEEPMAAAIGAGLPVSEATGSMVVDIGGGTTEVAVISLNGVVYSSSVRIGGDRFDEAIINYVRRNYGSLIGEATAERIKHEIGSAYPGDEVREIEVRGRNLAEGVPRGFTLNSNEILEALQEPLTGIVSAVMVALEQCPPELASDISERGMVLTGGGALLRNLDRLLMEETGIPVVVAEDPLTCVARGGGKALEMIDMHGGDLFSEE

Variants of: B1
Assay: bacterial two-hybrid β-galactosidase assay
Conditions: with partner chain of the complex shown; 25 μM IPTG; parent: 1.5e+03; read off a plot

In order of rising response:
1. chain 1 F65S  75 Miller Units
2. chain 1 R15C  1300 Miller Units

Same assay, conditions: with partner chain of the complex shown; 100 μM IPTG; parent: 2e+03; read off a plot

In order of rising response:
1. chain 2 L179R  250 Miller Units
2. chain 2 F182S  260 Miller Units

Variants of: B2
Assay: bacterial two-hybrid β-galactosidase assay
Conditions: with α-FtsZ fusion protein (wild-type E. coli FtsZ) [E. coli]; 100 μM IPTG; parent: 320; read off a plot

In order of rising response:
1. chain 1 L179R  250 Miller Units
2. chain 1 F182S  260 Miller Units

Variants of: B3
Assay: bacterial two-hybrid β-galactosidase assay
Conditions: with partner chain of the complex shown; 100 μM IPTG; parent: 310; read off a plot

In order of rising response:
1. chain 1 R15C  130 Miller Units
2. chain 1 F65S  330 Miller Units
